{"source": "paper PMC10368991", "origin": "cited, not measured here", "molecular_target": "LolB (Escherichia coli) (UniProt P61320)", "sequence (P61320 22-207)": "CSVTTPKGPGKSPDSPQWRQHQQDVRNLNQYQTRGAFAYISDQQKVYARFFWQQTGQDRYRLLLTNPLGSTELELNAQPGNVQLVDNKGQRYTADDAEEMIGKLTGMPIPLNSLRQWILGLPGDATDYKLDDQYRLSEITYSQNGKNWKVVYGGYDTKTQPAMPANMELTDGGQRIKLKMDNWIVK", "note": "pKd: −log10 of the molar value.", "data": [{"substance": "LolA (from UniProt P61316)", "values": [{"measurement": "pKd", "result": 4.50}]}]}
